From publication PMC6568178 (Theranostics, 2019)

T1: FOXM1 (endogenous) (human (endogenous in MDA-MB-231 and …, UniProt Q08050 1-763))
T1 sequence: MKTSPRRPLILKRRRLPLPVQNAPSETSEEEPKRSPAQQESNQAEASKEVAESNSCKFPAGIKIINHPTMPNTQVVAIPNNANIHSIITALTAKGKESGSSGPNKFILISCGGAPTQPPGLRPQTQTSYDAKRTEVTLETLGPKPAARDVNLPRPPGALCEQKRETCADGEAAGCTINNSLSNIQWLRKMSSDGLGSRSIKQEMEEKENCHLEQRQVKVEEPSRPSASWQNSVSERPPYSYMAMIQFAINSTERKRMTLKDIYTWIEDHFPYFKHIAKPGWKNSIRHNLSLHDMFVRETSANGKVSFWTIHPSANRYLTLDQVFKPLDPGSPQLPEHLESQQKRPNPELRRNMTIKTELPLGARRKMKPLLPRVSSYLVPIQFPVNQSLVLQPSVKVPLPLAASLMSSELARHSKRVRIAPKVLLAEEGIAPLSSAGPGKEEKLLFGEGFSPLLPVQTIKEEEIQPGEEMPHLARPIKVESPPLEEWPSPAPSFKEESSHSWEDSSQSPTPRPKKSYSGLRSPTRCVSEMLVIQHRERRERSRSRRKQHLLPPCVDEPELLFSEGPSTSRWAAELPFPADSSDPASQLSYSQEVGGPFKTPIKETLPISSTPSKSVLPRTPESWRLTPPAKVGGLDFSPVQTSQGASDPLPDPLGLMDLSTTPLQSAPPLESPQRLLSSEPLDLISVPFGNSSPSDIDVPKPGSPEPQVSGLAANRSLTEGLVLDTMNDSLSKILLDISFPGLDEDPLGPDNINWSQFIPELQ

T2: FOXM1 full-length;M1-138 (6xHis-FOXM1(1-138)-R9) (human?;human?, UniProt Q08050-2;Q08050-2 1-748;1-138, |)
T2 sequence 1: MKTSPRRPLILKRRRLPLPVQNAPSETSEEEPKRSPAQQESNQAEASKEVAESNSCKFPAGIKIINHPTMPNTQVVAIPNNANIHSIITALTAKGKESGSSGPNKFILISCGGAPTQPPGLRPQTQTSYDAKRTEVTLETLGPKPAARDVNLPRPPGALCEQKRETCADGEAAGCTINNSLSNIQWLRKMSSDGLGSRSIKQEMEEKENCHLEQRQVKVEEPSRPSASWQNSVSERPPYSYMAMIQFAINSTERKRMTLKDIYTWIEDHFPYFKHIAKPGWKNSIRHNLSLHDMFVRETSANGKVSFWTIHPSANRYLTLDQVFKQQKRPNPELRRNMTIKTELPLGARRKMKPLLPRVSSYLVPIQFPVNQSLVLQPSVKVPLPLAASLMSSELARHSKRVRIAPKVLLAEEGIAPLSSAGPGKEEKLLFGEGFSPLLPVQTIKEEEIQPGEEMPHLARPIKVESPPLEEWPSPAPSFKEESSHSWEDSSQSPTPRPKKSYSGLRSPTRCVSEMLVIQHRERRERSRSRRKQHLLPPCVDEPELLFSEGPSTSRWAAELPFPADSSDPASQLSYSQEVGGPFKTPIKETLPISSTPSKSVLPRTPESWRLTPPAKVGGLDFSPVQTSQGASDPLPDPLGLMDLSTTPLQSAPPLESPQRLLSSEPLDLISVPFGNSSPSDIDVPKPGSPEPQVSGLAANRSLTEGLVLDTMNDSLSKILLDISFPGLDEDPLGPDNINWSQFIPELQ
T2 sequence 2: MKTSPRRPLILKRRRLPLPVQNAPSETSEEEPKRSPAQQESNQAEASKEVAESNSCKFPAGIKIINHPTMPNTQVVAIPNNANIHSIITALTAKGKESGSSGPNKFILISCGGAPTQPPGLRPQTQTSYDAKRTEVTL

T3: FOXM1 full-length (UniProt Q08050-2 1-748)
T3 sequence: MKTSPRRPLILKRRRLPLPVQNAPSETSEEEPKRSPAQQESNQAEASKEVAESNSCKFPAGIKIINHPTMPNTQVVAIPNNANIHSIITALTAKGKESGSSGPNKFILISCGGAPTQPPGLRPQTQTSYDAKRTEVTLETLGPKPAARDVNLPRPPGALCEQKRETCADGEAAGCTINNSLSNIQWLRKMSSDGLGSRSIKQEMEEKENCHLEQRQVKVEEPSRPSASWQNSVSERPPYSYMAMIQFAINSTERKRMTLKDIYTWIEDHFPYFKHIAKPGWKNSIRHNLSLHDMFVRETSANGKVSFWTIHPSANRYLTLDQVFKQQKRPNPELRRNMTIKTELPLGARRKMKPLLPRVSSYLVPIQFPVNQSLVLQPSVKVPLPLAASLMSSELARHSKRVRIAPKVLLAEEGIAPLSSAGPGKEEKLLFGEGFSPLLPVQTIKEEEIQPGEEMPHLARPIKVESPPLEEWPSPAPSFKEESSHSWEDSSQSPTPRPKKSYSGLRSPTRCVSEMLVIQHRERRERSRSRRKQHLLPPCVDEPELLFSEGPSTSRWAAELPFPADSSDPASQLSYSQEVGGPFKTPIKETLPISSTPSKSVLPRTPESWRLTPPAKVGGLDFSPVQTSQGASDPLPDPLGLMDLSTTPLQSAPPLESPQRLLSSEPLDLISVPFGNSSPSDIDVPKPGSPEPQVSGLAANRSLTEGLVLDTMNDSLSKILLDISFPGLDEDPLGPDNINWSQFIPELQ


Key:
FOXM1 (endogenous) = target: T1, FOXM1 (endogenous); assay: cell-based or functional assay
[1] = target: T2, FOXM1 full-length;M1-138 …; assay: EMSA
FOXM1 full-length = target: T3, FOXM1 full-length; assay: EMSA

Binder | IC50 of cell viability (CCK-8), A549 cells, 12 h treatment (FOXM1 (endogenous)) [µM] | IC50 of cell viability (CCK-8), Hela cells, 12 h treatment (FOXM1 (endogenous)) [µM] | IC50 of cell viability (CCK-8), HepG2 cells, 12 h treatment (FOXM1 (endogenous)) [µM] | IC50 of cell viability (CCK-8), MCF-7 cells, 12 h treatment (FOXM1 (endogenous)) [µM] | IC50 of cell viability (CCK-8), MDA-MB-231 cells, 12 h treatment (FOXM1 (endogenous)) [µM] | binding result [1] | binding result (FOXM1 full-length)
M1-138 (recombinant FOXM1 N-terminal domain (1-138aa) fused with a nine arginine cell-penetrating peptide) (domain or fragment) MKTSPRRPLILKRRRLPLPVQNAPSETSEEEPKRSPAQQESNQAEASKEVAESNSCKFPAGIKIINHPTMPNTQVVAIPNNANIHSIITALTAKGKESGSSGPNKFILISCGGAPTQPPGLRPQTQTSYDAKRTEVTLRRRRRRRRR | 5.3 | 8.9 | 13.8 | 17.9 | 7.8 |  | 
FAM-labeled FOXM1 dsDNA probe (Hot) (dsDNA) DNA 1: TTTGTTTATTTGTTTGTTTATTTG DNA 2: CAAATAAACAAACAAATAAACAAA |  |  |  |  |  | binds | binds
